“And” between values parts separate entries of the source, which are not always exact repeats. Equal values may be shown once.
Key:
[1] = target: BCMA on cell surface of BCMA-positive cells (NCI-H929; RPMI-8226) (UniProt Q02223); test: flow cytometry on NCI-H929 cells, control without nanobody
[2] = target: Cyno BCMA-His antigen (cyno (monkey)); test: phage ELISA, antigen coated 100 ng/well, Anti-M13 HRP
[3] = target: Human BCMA-His recombinant protein (human) (UniProt Q02223); test: as above
[4] = target: T1, Human BCMA-His recombinant protein (human, UniProt Q02223 1-54); test: ELISA, Human-BCMA-His coated 200 ng/well
T1 construct: Supplied reagent (Chengdu Shengshi Junlian Biotechnology, Cat# BCA-H522y); also called Cat# BCA-H522y; not shown: His tag
T1 sequence (looked up): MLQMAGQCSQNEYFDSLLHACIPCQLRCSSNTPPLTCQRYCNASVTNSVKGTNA

[5] = target: BCMA on cell surface of BCMA-positive cells (NCI-H929; RPMI-8226) (UniProt Q02223); test: flow cytometry on NCI-H929 cells, antibody 10 ug/mL
[6] = target: T1, Human BCMA-His recombinant protein; test: ELISA, Human BCMA His coated 200 ng/well, anti-human Fc HRP
[7] = target: BCMA on cell surface of BCMA-positive cells (NCI-H929; RPMI-8226) (UniProt Q02223); test: flow cytometry on NCI-H929 cells, antibody 10 ug/ml, PE anti-human Fc

Sequence of Cyno BCMA-His antigen (cyno (monkey)) (chain, as listed by the source): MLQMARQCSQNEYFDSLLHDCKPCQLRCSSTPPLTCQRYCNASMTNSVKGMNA

With hIgG Fc-PE (antibody) the NCI-H929 Positive Rate% [1] was 0.04%.

B1: BC-HC-15 (positive phage clone, VHH displayed on phage) (VHH)
VHH: EVQLVQSGGGSVQAGGSLRLSCAASGGDISSTFMGWFRQAPGKEREGVAAIYTGDGTTDYADSVKGRFTIAQDNAKNTVYLEMSRLKPEDTALYYCATGLDGSGSVFSPRSFRYWGQGTQVTVSS
In the case of B1, the OD (phage ELISA, monkey) [2] is reported as 1.79 OD450 and the OD (phage ELISA, human) [3] is reported as 2.11 OD450.

B2: BC-HC-15 nanobody, recombinant VHH-hIgG1Fc antibody (Fc fusion)
chain: B1 VHH
notes: also called VHH-hFC; not shown: human IgG1 Fc (hIgG1Fc) from the pVHH-hIgG1Fc expression plasmid
B2 was tested, and the EC50 [4] was less than 10 nM, the positive binding rate [5] was greater than 95% and the EC50 [6] was 0.605 µg/mL and 7.57 nM. It also gave an NCI-H929 Positive Rate% [7] of 99.9%.

From patent EP4806919A1 (Cells & Genes Biotech (Shanghai) Co., Ltd, dated 2026)
